Results reported in US20140370026A1 (TRUSTEES OF PRINCETON UNIVERSITY, published 2014).

B1: human CMV glycoprotein gO (UL74-coded) (other)
chain: KVMSKALYNRPWRGLVLSKIGKYKLDQLKLEILRQLETTISTKYNVSKQPVKNLTMNMTEFPQYYILAGPIQNYSITYLWFDFYSTQLRKPAKYVYSQYNHTAKTITFRPPPCGTVPSMTCLSEMLNVSKRNDTGEQGCGNFTTFNPMFFNVPRWNTKLYVGPTKVNVDSQTIYFLGLTALLLRYAQRNCTHSFYLVNAMSRNLFRVPKYINGTKLKNTMRKLKRKQAPVKEQFEKKAKKTQSTTTPYFSYTTSAALNVTTNVTYSITTAARRVSTSTIAYRPDSSFMKSIMATQLRDLATWVYTTLRYRQNPFCEPSRNRTAVSEFMKNTHVLIRNETPYTIYGTLDMSSLYYNETMFVENKTASDSNKTTPTSPSMGFQRTFIDPLWDYLDSLLFLDEIRNFSLRSPTYVNLTPPEHRRAVNLSTLNSLWWWLQ
B2: human CMV glycoprotein gN (UL73-coded) (other)
chain: NNSSTSTSATTSKSSASVSTTKLTTVATTSATTTTTTTLSTTSTKLSSTTHDPNVMRRHANDDFYKAHCTSHMYELSLSSFAAWWTMLNALILMGAFCIVLRHCCFQNFTATTTKGY
notes: also called ~60-kDa protein
B3: human CMV pUL128 (other)
chain: EECCEFINVNHPPERCYDFKMCNRFTVALRCPDGEVCYSPEKTAEIRGIVTTMTHSLTRQVVHNKLTSCNYNPLYLEADGRIRCGKVNDKAQYLLGAAGSVPYRWINLEYDKITRIVGLDQYLESVKKHKRLDVCRAKMGYMLQ
notes: also called UL128 protein; 16-kDa protein

Columns and labels:
human CMV pUL130 = molecular target: T1, human CMV pUL130 (human CMV, UniProt P16772 26-214); experiment: co-immunoprecipitation with anti-gO from radiolabeled infected MRC-5 lysates (FIG. 3A)
T1 construct: also called UL130 protein; 33- to 35-kDa protein

[1] = molecular target: human CMV glycoprotein gH (UL75-coded) (human CMV, UniProt P12824 24-743); experiment: co-immunoprecipitation with anti-gH 14-4b
[2] = molecular target: T2, human CMV glycoprotein gM (UL100-coded) (human CMV, UniProt P16733 1-372); experiment: co-immunoprecipitation with anti-gM IMP91-3/1
T2 sequence: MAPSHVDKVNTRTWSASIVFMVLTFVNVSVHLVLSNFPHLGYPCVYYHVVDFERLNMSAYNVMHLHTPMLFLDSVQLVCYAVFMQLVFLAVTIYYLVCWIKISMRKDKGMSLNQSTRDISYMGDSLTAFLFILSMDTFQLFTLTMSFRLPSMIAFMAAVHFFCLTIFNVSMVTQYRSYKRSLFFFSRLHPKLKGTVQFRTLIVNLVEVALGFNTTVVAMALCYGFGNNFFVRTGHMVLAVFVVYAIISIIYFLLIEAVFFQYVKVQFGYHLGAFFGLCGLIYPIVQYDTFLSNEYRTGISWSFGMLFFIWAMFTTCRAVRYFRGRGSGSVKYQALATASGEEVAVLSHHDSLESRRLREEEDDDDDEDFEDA

[3] = molecular target: B1; experiment: co-immunoprecipitation with anti-gO from radiolabeled infected MRC-5 lysates (FIG. 3A)

Q: Which results are given for B1?
A: binding result (human CMV pUL130): no binding; binding result [1]: binds

Q: Does B2 bind [2]?
A: Result: binds

Q: Does B3 bind [3]?
A: Result: no binding
